Measured values as given in US11306331B2, “Processes for the production of hydroxycinnamic acids using polypeptides having tyrosine ammonia lyase activity” (CysBio ApS, priority 2014, dated 2022).

Columns and labels:
[1] = system: L. lactis NZ9000ΔldhΔldhB; assay: Specific pHCA and CA productivity of L. lactis strains expressing TAL/PAL enzymes in CDM; assay type: cell-based, Lactococcus lactis; conditions: CDM
Excerpt: The synthetic RsXALI (protein GI 129592) and RmXALI (protein GI 126464011) genes, codon optimized for Lactococcus lactis (GeneArt), were cloned into the nisin inducible expression vector pNZ8048 (Kuipers et al., 1998) as follows: RsXALI (SEQ ID NO: 56) and RmXALI (SEQ ID NO: 57) genes and the vector were PCR amplified using the primers listed in Table 7, and were assembled in a single-tube isothermal reaction using the Gibson Assembly Master Mix (New England Biolabs). Reaction products were ethanol-precipitated and suspended in double distilled water before transformation into L. lactis by electroporation as described by Holo and Nes (1995). The synthetic genes encoding SeSam8, R_XAL, HaXAL1 and FjXAL described in a previous example above were amplified by PCR using the primer pairs listed in Table 1, digested with specific restriction enzymes, and cloned in-between the NcoI and XbaI restriction sites of pNZ8048. The plasmids were obtained and maintained in L. lactis NZ9000 (Kuipers et al., 1998) and the gene sequences of the different constructs were verified by sequencing.
To assess pHCA production, TAL-expression vectors were transformed into a strain derived from NZ9000, but with deletion of the genes Idh and dhB (NZ9000ΔldhΔldhB). A control strain was also constructed by transformation of NZ9000ΔldhΔldhB with empty expression vector pNZ8048.
For molecular biology procedures, L. lactis strains were cultivated as batch cultures (flasks) without aeration in M17 medium (Difco™, USA) supplemented with 0.5% glucose (w/v) at 30° C. To assess pHCA production, strains were grown as static cultures in chemically defined medium (CDM; Poolman and Konings, 1988) containing 1% glucose (wt/vol) without pH control (initial pH 6.5 or 7.0) and supplemented with 1.7 or 3.7 mM L-tyrosine. Plasmid selection was achieved by addition of 5 μg mL^−1 chloramphenicol to the growth medium. Growth was monitored by measuring OD600. For heterologous expression of cloned tyrosine ammonia lyases, L. lactis strains were grown in CDM and nisin (1.5 μg L^−1) was added at an OD600 of 0.3-0.4. Samples (1 mL) of cultures were collected at different points during growth; centrifuged (16,100×g, 10 min, 4° C.) and the supernatants stored at −20° C. until analysis by HPLC as described in a previous example above. […] The first six columns are results from media containing 1.7 mM tyrosine. The seventh and ninth columns represent samples from strains grown in media containing 3.7 mM tyrosine, and the eighth and ninth columns are data from media with 68.5 mM 3-(N-morpholino)propanesulfonic acid (MOPS) and initial pH adjusted to 7.0 rather than 6.5.

[2] = system: E. coli BL21(DE3)pLysS cells; assay: Specific production of pHCA and CA by E. coli expressing TAL/PAL enzymes; assay type: cell-based, Escherichia coli; conditions: 24 h after supplementation, +/- standard deviation
Description: Plasmids carrying the genes were transformed into electrocompetent E. coli BL21(DE3)pLysS cells (Life Technologies) and selected on LBplates containing 50 ug/mL streptomycin. The strains were grown in M9 minimal media containing glucose as a carbon source, and expression was induced by adding 1 mM IPTG at an optical density at 600 nm of 0.6. After three hours of growth at 30° C. the cultures were supplemented with 2 mM tyrosine, phenylalanine or histidine. After further 24 hours, samples were withdrawn for determination of the optical density at 600 nm and for the isolation of the supernatant.
The concentration of pHCA and CA in the supernatant was quantified by high performance (HPLC) and compared to chemical standards. HPLC was done on a Thermo setup using a HS-F5 column and mobile phases: 5 mM ammonium formate pH 4.0 (A) and acetonitrile (B) at 1.5 mL min-1, using a gradient elution starting at 5% B. From 0.5 min after injection to 7 min, the fraction of B increased linearly from 5% to 60%, and between 9.5 min and 9.6 the fraction of B decreased back to 5%, and remaining there until 12m pHCA and CA were quantified by measuring absorbance at 333 nm and 277 nm, respectively. The production was tested without addition of precursors or the addition of either phenylalanine or tyrosine to the growth medium.
The specific production was calculated as micromolar (μM) concentration per unit of optical density of the culture at 600 nm, and standard deviations were calculated based on triplicate experiments. HaXAL1, HaXAL2 and FjXAL are the most specific enzymes and those that reach the highest yields.

[3] = system: Saccharomyces cerevisiae CEN.PK102-5B; assay: Specific production of pHCA and CA by S. cerevisiae expressing TAL enzymes; assay type: cell-based; conditions: 72 h, 30° C., +/- standard deviation
Excerpt: A number of the previously characterized enzymes were characterized when expressed in Saccharomyces cerevisiae. Genes encoding HaXAL1 and FjXAL were synthesized with codon optimization for S. cerevisiae available by GeneArt (Life Technologies), and were named HaXAL1 Sc and FjXALSc. Genes were amplified using the oligonucleotide (refer to specific name) shown in Table 6, and inserted by uracil-excision into the vector pCfB132 together with the PPGK1 promoter amplified by primers PPGK1_fw and PPGK1_rv (Jensen et al., 2014). The finished plasmids were transformed into Saccharomyces cerevisiae CEN.PK102-5B (MAT a ura3-52 his3Δ1 leu2-3/112 MAL2-8c SUC2) using a standard lithium acetate transformation protocol and selected for on synthetic drop-out media plates lacking uracil.
Cells were grown in SC medium without uracil, and diluted into Delft medium or Feed-In-Time (FIT) medium (m2p-labs) supplemented with leucine and histidine. After 72 h of incubation at 30° C. with shaking, samples were taken for the analysis of optical density at 600 nm and for clarification of the supernatant, which was analyzed by HPLC as described in example 1. The specific production was calculated as micromolar (μM) concentration per unit of optical density of the culture at 600 nm and is shown in Table 4.

Molecule | production of CA [1] | Specific production of CA ([2]; M9 + Phe (2 mM)) | Specific production of pHCA ([2]; M9 + Phe (2 mM)) | Specific production of CA ([2]; M9 + Tyr (2 mM)) | Specific production of pHCA ([2]; M9 + Tyr (2 mM)) | Specific production of CA ([3]; Delft + Tyr (10 mM)) | Specific production of pHCA ([3]; Delft + Tyr (10 mM)) | Specific production of CA ([3]; Delft medium) | Specific production of pHCA ([3]; Delft medium) | Specific production of CA ([3]; FIT + Tyr (10 mM)) | Specific production of pHCA ([3]; FIT + Tyr (10 mM)) | Specific production of CA ([3]; FIT medium) | Specific production of pHCA ([3]; FIT medium)
RmXALLI: RmXAL expressed from a synthetic gene codon optimized for Lactococcus lactis (SEQ ID NO: 57) (protein, RmXal coding sequence (codon optimized for Lactococcus lactis)) MAPSVDSIATSVANSLSNGLHAAAAANGGDVHKKTAGAGSLLPTTETTQLDIVERILADAGATDQIKLDGYTLTLGDVVGAARRGRSVKVADSPHIREKIDASVEFLRTQLDNSVYGVTTGFGGSADTRTEDAISLQKALLEHQLCGVLPTSMDGFALGRGLENSLPLEVVRGAMTIRVNSLTRGHSAVRIVVLEALTNFLNHGITPIVPLRGTISASGDLSPLSYIAASITGHPDSKVHVDGKIMSAQEAIALKGLQPVVLGPKEGLGLVNGTAVSASMATLALTDAHVLSLLAQALTALTVEAMVGHAGSFHPFLHDVTRPHPTQIEVARNIRTLLEGSKYAVHHETEVKVKDDEGILRQDRYPLRCSPQWLGPLVSDMIHAHAVLSLEAGQSTTDNPLIDLENKMTHHGGAFMASSVGNTMEKTRLAVALMGKVSFTQLTEMLNAGMNRALPSCLAAEDPSLSYHCKGLDIAAAAYTSELGHLANPVSTHVQPAEMGNQAINSLALISARRTAEANDVLSLLLATHLYCVLQAVDLRAMEFEHTKAFEPMVTELLKQHFGALATAEVEDKVRKSIYKRLQQNNSYDLEQRWHDTFSVATGAVVEALAGQEVSLASLNAWKVACAEKAIALTRSVRDSFWAAPSSSSPALKYLSPRTRVLYSFVREEVGVKARRGDVYLGKQEVTIGTNVSRIYEAIKSGCIAPVLVKMMA | the only enzyme resulting in production of CA | – | – | – | – | – | – | – | – | – | – | – | –
RtXAL: previously described aromatic amino acid lyase of Rhodosporidium toruloides/Rhodotorula glutinis, protein GI 129593 (protein, UniProt P11544 1-716, looked up) Phenylalanine/tyrosine …: MAPSLDSISHSFANGVASAKQAVNGASTNLAVAGSHLPTTQVTQVDIVEKMLAAPTDSTLELDGYSLNLGDVVSAARKGRPVRVKDSDEIRSKIDKSVEFLRSQLSMSVYGVTTGFGGSADTRTEDAISLQKALLEHQLCGVLPSSFDSFRLGRGLENSLPLEVVRGAMTIRVNSLTRGHSAVRLVVLEALTNFLNHGITPIVPLRGTISASGDLSPLSYIAAAISGHPDSKVHVVHEGKEKILYAREAMALFNLEPVVLGPKEGLGLVNGTAVSASMATLALHDAHMLSLLSQSLTAMTVEAMVGHAGSFHPFLHDVTRPHPTQIEVAGNIRKLLEGSRFAVHHEEEVKVKDDEGILRQDRYPLRTSPQWLGPLVSDLIHAHAVLTIEAGQSTTDNPLIDVENKTSHHGGNFQAAAVANTMEKTRLGLAQIGKLNFTQLTEMLNAGMNRGLPSCLAAEDPSLSYHCKGLDIAAAAYTSELGHLANPVTTHVQPAEMANQAVNSLALISARRTTESNDVLSLLLATHLYCVLQAIDLRAIEFEFKKQFGPAIVSLIDQHFGSAMTGSNLRDELVEKVNKTLAKRLEQTNSYDLVPRWHDAFSFAAGTVVEVLSSTSLSLAAVNAWKVAAAESAISLTRQVRETFWSAASTSSPALSYLSPRTQILYAFVREELGVKARRGDVFLGKQEVTIGSNVSKIYEAIKSGRINNVLLKMLA | – | 180 ± 16 μM OD600-1 | 7.2 ± 1.3 μM OD600-1 | 5.9 ± 6.1 μM OD600-1 | 170 ± 10 μM OD600-1 | 21 ± 1.9 μM OD600-1 | 89 ± 13 μM OD600-1 | 18 ± 0.9 μM OD600-1 | 20 ± 0.8 μM OD600-1 | 57 ± 4.1 μM OD600-1 | 110 ± 8.8 μM OD600-1 | 88 ± 2 μM OD600-1 | 67 ± 4.3 μM OD600-1
HaXAL2: tyrosine ammonia lyase derived from Herpetosiphon aurantiacus, protein GI 159898927, 552 aa (protein, listed as Herpetosiphon aurantiacus) MRHQVTLTGAGLTIEDVVRVARHHQPVGLTDNPEILQRIEDSCAYINDAVKASKPVYGVTTGFGGMADVVISSEEAADLQNNAIWYHKTGAGKLLPLADVRAAMLLRANSHMRGVSGIRLEIIQRMMTFLNANVTPHVREFGSIGASGDLVPLISITGALLGTDPAFRVDFDGENIDCLEALERLNLPRLELLPKEGLAMMNGTSVMTGIASNVLHDARILLGLALNIHGLMIQGLQGTNQSFHPFIHQHKAHTGQVWAADHMLQILEGSALSRDELDGRHEYREGDLIQDRYSLRCLPQFLGPIIDGMAYITHHLRVEINSANDNPLINTEAGASYHGGNFLGQYIGVGMDQLRYYMGLMAKHLDVQIALLVSPQFNNGLSASLVGNTDRKVNMGLKGLQISGNSIMPILGFLGNSLADRFPTHAEQFNQNINSQGFGSANLARQTIETLQQYIAIALIFGVQAVDLRTFKRTGHYNAVETLSPMTAKLYSAMREVVGKPISHERPYIWNDNEQALEQHISAIVSDITNDGIIPQAIQETLDSLRSIILFA | – | 0.4 ± 0.02 μM OD600-1 | 20 ± 4.4 μM OD600-1 | 0 ± 0 μM OD600-1 | 61 ± 9.7 μM OD600-1 | 0 ± 0 μM OD600-1 | 20 ± 6.3 μM OD600-1 | 0 ± 0 μM OD600-1 | 22 ± 5.2 μM OD600-1 | 0 ± 0 μM OD600-1 | 26 ± 11 μM OD600-1 | 0 ± 0 μM OD600-1 | 30 ± 16 μM OD600-1
